The values that follow are results of earlier work, collected in article PMC5523132 (ACS chemical biology, 2016).

The conditions of the data set: cited from earlier work.

For the compound RSA: rat serum albumin, for the setting “in the rat”, the clearance half-life entry was “approx. 48 hours”.
Consider `O=C([O-])CN1CCN(CC(=O)[O-])CCN(CC(=O)[O-])CCN(CC(=O)[O-])CC1.[Gd+3]` [[Gd•DOTA], reference compound], for which, under “adult rats”, the half-life result is “roughly 19 minutes”.
